Reference: the supplement of paper PMC10065799, “High-throughput profiling of sequence recognition by tyrosine kinases and SH2 domains using bacterial peptide display” (eLife, 2023)
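Wherever SH2 binding enrichment of the phosphorylated peptide, bacterial display is given: peptide library displayed on the E. coli surface as eCPX fusions, selected cells deep-sequenced, score is each peptide's frequency after selection divided by its frequency in the input.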
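Wherever phosphorylation enrichment, bacterial display is given: 11-residue human phosphosite peptides and single-mutation variants displayed on the E. coli surface, counted by deep sequencing, each peptide's frequency after selection divided by its frequency in the unselected input library; frequency after pTyr selection over input frequency; kinase dosed for 20-30% of maximal phosphorylation in three min.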

These sequences were tested on c-Src (assay: phosphorylation enrichment, bacterial display (enrichment ratio); higher = better substrate or ligand; peptides without Tyr show the background).
Sequence DLQDEYDFKCK [STAT1_Y170] has a phosphorylation enrichment of 0.546.
In the case of RLLVVYRWTQR [HBB_Y36_P37R], the phosphorylation enrichment is reported as 0.402.
Work on LPKEQYLFTKE [AFG3L2_Y614_YF] yielded a phosphorylation enrichment of 0.406.
For QISSNYDDAMQ [ZNF281_Y531], the phosphorylation enrichment was 0.57.
For CSGNCYLDIRP [FBN1_Y1535_R1530C], the phosphorylation enrichment was 0.609.
In the case of GSERDYTYEEL [EIF2S2_Y174], the phosphorylation enrichment is reported as 1.63.
Work on LGRTRYQDVTG [MIPEP_Y510_H512D] yielded a phosphorylation enrichment of 0.584.
For LLLLFYVVRFC [MPZ_Y177_YF], the phosphorylation enrichment was 0.726.
For VYSIDYYRVGG [NTRK2_Y706_T704I], the phosphorylation enrichment was 5.1.
Sequence VQVAYYTMMMN [SPATA17_Y84] has a phosphorylation enrichment of 2.56.
Work on CTTIHYNYICN [TP53_Y234_M237I] yielded a phosphorylation enrichment of 0.532.
For TFSPPYYHRNC [HGD_Y333_R330S], the phosphorylation enrichment was 0.535.
GPQGFYSNKLV [PTPN14_Y506_V505F] gave a phosphorylation enrichment of 0.45.
SRPHLYGTPSR [ADGRE2_Y670] showed a phosphorylation enrichment of 0.441.
For GDEVEYMSVSF [GCLC_Y53_L55S], the phosphorylation enrichment was 1.49.
Sequence PYGQWYESHYA [RPS8_Y113_R110G] has a phosphorylation enrichment of 6.96.
Work on QEIATYRRLPE [KRT16_Y417_L421P] yielded a phosphorylation enrichment of 0.38.
For SYSGEYGSGGG [ZG16_Y30_G32S], the phosphorylation enrichment was 0.545.
KAVLHYKHQNQ [MTOR_Y1804_E1799K] was tested, and the phosphorylation enrichment was 0.366.
QVKEQYQDVPM [PKP2_Y659_K654Q] was tested, and the phosphorylation enrichment was 0.573.
Sequence NTCNRYCCDEI [ITGB3_Y660_R662C] has a phosphorylation enrichment of 0.541.
With FSQQTYYPVSN [ABCD1_Y180_R182P] the phosphorylation enrichment was 4.37.
For HAVYIYDICHV [TWNK_Y508_V507I], the phosphorylation enrichment was 5.31.
SDGGCYEQLFV [MC4R_Y41] was tested, and the phosphorylation enrichment was 1.76.
DLTQDYEEWKR [ORC6_Y232] was tested, and the phosphorylation enrichment was 0.696.
TEAEPYYRSLR [NPHS1_Y1138] was tested, and the phosphorylation enrichment was 0.512.
Work on DNEFAYLKAII [HNF4A_Y288_YF] yielded a phosphorylation enrichment of 0.419.
Work on WYQTKYEELQV [KRT6B_Y360_I365V] yielded a phosphorylation enrichment of 0.452.
Sequence AKKKMYSRKTK [AGXT_Y231] has a phosphorylation enrichment of 0.42.

These sequences were tested against Grb2 SH2 (UniProt P62993) (assay: SH2 binding enrichment of the phosphorylated peptide, bacterial display (enrichment ratio); higher = better substrate or ligand; peptides without Tyr show the background).
Sequence of Grb2 SH2 (P62993 whole entry, looked up): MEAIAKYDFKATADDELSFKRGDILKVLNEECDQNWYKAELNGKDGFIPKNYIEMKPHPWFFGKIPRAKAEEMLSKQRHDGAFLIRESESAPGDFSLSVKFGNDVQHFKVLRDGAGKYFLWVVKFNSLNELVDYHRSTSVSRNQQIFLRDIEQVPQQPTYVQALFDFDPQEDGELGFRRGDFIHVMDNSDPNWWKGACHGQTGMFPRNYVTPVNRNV
DLQDEYDFKCK [STAT1_Y170] showed an SH2 binding enrichment of 0.825.
RLLVVYRWTQR [HBB_Y36_P37R] gave an SH2 binding enrichment of 0.663.
With LPKEQYLFTKE [AFG3L2_Y614_YF] the SH2 binding enrichment was 0.911.
For QISSNYDDAMQ [ZNF281_Y531], the SH2 binding enrichment was 0.667.
CSGNCYLDIRP [FBN1_Y1535_R1530C] gave an SH2 binding enrichment of 1.19.
For GSERDYTYEEL [EIF2S2_Y174], the SH2 binding enrichment was 0.969.
For LGRTRYQDVTG [MIPEP_Y510_H512D], the SH2 binding enrichment was 0.986.
Work on LLLLFYVVRFC [MPZ_Y177_YF] yielded an SH2 binding enrichment of 1.69.
For VYSIDYYRVGG [NTRK2_Y706_T704I], the SH2 binding enrichment was 0.884.
VQVAYYTMMMN [SPATA17_Y84] was tested, and the SH2 binding enrichment was 1.21.
CTTIHYNYICN [TP53_Y234_M237I] was tested, and the SH2 binding enrichment was 1.75.
For TFSPPYYHRNC [HGD_Y333_R330S], the SH2 binding enrichment was 1.06.
GPQGFYSNKLV [PTPN14_Y506_V505F] showed an SH2 binding enrichment of 0.792.
SRPHLYGTPSR [ADGRE2_Y670] was tested, and the SH2 binding enrichment was 1.54.
GDEVEYMSVSF [GCLC_Y53_L55S] gave an SH2 binding enrichment of 0.736.
PYGQWYESHYA [RPS8_Y113_R110G] was tested, and the SH2 binding enrichment was 0.808.
Work on QEIATYRRLPE [KRT16_Y417_L421P] yielded an SH2 binding enrichment of 0.855.
SYSGEYGSGGG [ZG16_Y30_G32S] showed an SH2 binding enrichment of 0.782.
KAVLHYKHQNQ [MTOR_Y1804_E1799K] showed an SH2 binding enrichment of 1.12.
In the case of QVKEQYQDVPM [PKP2_Y659_K654Q], the SH2 binding enrichment is reported as 0.945.
NTCNRYCCDEI [ITGB3_Y660_R662C] showed an SH2 binding enrichment of 0.841.
FSQQTYYPVSN [ABCD1_Y180_R182P] was tested, and the SH2 binding enrichment was 0.938.
In the case of HAVYIYDICHV [TWNK_Y508_V507I], the SH2 binding enrichment is reported as 0.801.
In the case of SDGGCYEQLFV [MC4R_Y41], the SH2 binding enrichment is reported as 0.853.
DLTQDYEEWKR [ORC6_Y232] showed an SH2 binding enrichment of 0.982.
For TEAEPYYRSLR [NPHS1_Y1138], the SH2 binding enrichment was 0.961.
Work on DNEFAYLKAII [HNF4A_Y288_YF] yielded an SH2 binding enrichment of 0.775.
WYQTKYEELQV [KRT6B_Y360_I365V] was tested, and the SH2 binding enrichment was 0.832.
AKKKMYSRKTK [AGXT_Y231] showed an SH2 binding enrichment of 0.638.

The sequences below were run against SHP2-C SH2 in the same assay as above.
In the case of DLQDEYDFKCK [STAT1_Y170], the SH2 binding enrichment is reported as 0.561.
For RLLVVYRWTQR [HBB_Y36_P37R], the SH2 binding enrichment was 0.799.
For LPKEQYLFTKE [AFG3L2_Y614_YF], the SH2 binding enrichment was 1.06.
QISSNYDDAMQ [ZNF281_Y531] was tested, and the SH2 binding enrichment was 0.728.
In the case of CSGNCYLDIRP [FBN1_Y1535_R1530C], the SH2 binding enrichment is reported as 1.07.
GSERDYTYEEL [EIF2S2_Y174] gave an SH2 binding enrichment of 0.761.
In the case of LGRTRYQDVTG [MIPEP_Y510_H512D], the SH2 binding enrichment is reported as 0.95.
With LLLLFYVVRFC [MPZ_Y177_YF] the SH2 binding enrichment was 1.9.
Sequence VYSIDYYRVGG [NTRK2_Y706_T704I] has an SH2 binding enrichment of 1.61.
In the case of VQVAYYTMMMN [SPATA17_Y84], the SH2 binding enrichment is reported as 1.56.
Work on CTTIHYNYICN [TP53_Y234_M237I] yielded an SH2 binding enrichment of 4.45.
For TFSPPYYHRNC [HGD_Y333_R330S], the SH2 binding enrichment was 0.859.
With GPQGFYSNKLV [PTPN14_Y506_V505F] the SH2 binding enrichment was 0.708.
In the case of SRPHLYGTPSR [ADGRE2_Y670], the SH2 binding enrichment is reported as 0.825.
For GDEVEYMSVSF [GCLC_Y53_L55S], the SH2 binding enrichment was 0.623.
PYGQWYESHYA [RPS8_Y113_R110G] showed an SH2 binding enrichment of 0.992.
QEIATYRRLPE [KRT16_Y417_L421P] was tested, and the SH2 binding enrichment was 0.593.
SYSGEYGSGGG [ZG16_Y30_G32S] gave an SH2 binding enrichment of 0.794.
In the case of KAVLHYKHQNQ [MTOR_Y1804_E1799K], the SH2 binding enrichment is reported as 0.734.
Sequence QVKEQYQDVPM [PKP2_Y659_K654Q] has an SH2 binding enrichment of 0.752.
NTCNRYCCDEI [ITGB3_Y660_R662C] gave an SH2 binding enrichment of 0.752.
Sequence FSQQTYYPVSN [ABCD1_Y180_R182P] has an SH2 binding enrichment of 0.818.
Work on HAVYIYDICHV [TWNK_Y508_V507I] yielded an SH2 binding enrichment of 0.979.
Sequence SDGGCYEQLFV [MC4R_Y41] has an SH2 binding enrichment of 0.745.
DLTQDYEEWKR [ORC6_Y232] was tested, and the SH2 binding enrichment was 0.647.
In the case of TEAEPYYRSLR [NPHS1_Y1138], the SH2 binding enrichment is reported as 0.864.
For DNEFAYLKAII [HNF4A_Y288_YF], the SH2 binding enrichment was 0.491.
With WYQTKYEELQV [KRT6B_Y360_I365V] the SH2 binding enrichment was 0.834.
Work on AKKKMYSRKTK [AGXT_Y231] yielded an SH2 binding enrichment of 0.488.

What follows are sequences tested against c-Src SH2 in the same assay as above.
Work on DLQDEYDFKCK [STAT1_Y170] yielded an SH2 binding enrichment of 0.448.
Work on RLLVVYRWTQR [HBB_Y36_P37R] yielded an SH2 binding enrichment of 0.493.
Sequence LPKEQYLFTKE [AFG3L2_Y614_YF] has an SH2 binding enrichment of 0.762.
Sequence QISSNYDDAMQ [ZNF281_Y531] has an SH2 binding enrichment of 1.11.
For CSGNCYLDIRP [FBN1_Y1535_R1530C], the SH2 binding enrichment was 1.37.
Work on GSERDYTYEEL [EIF2S2_Y174] yielded an SH2 binding enrichment of 0.944.
Sequence LGRTRYQDVTG [MIPEP_Y510_H512D] has an SH2 binding enrichment of 1.
In the case of LLLLFYVVRFC [MPZ_Y177_YF], the SH2 binding enrichment is reported as 1.14.
For VYSIDYYRVGG [NTRK2_Y706_T704I], the SH2 binding enrichment was 2.
VQVAYYTMMMN [SPATA17_Y84] showed an SH2 binding enrichment of 1.56.
CTTIHYNYICN [TP53_Y234_M237I] was tested, and the SH2 binding enrichment was 9.21.
TFSPPYYHRNC [HGD_Y333_R330S] gave an SH2 binding enrichment of 0.703.
GPQGFYSNKLV [PTPN14_Y506_V505F] was tested, and the SH2 binding enrichment was 0.465.
Work on SRPHLYGTPSR [ADGRE2_Y670] yielded an SH2 binding enrichment of 1.09.
For GDEVEYMSVSF [GCLC_Y53_L55S], the SH2 binding enrichment was 0.376.
PYGQWYESHYA [RPS8_Y113_R110G] showed an SH2 binding enrichment of 1.47.
QEIATYRRLPE [KRT16_Y417_L421P] gave an SH2 binding enrichment of 0.441.
Work on SYSGEYGSGGG [ZG16_Y30_G32S] yielded an SH2 binding enrichment of 0.495.
Work on KAVLHYKHQNQ [MTOR_Y1804_E1799K] yielded an SH2 binding enrichment of 0.861.
Sequence QVKEQYQDVPM [PKP2_Y659_K654Q] has an SH2 binding enrichment of 0.883.
NTCNRYCCDEI [ITGB3_Y660_R662C] showed an SH2 binding enrichment of 0.557.
For FSQQTYYPVSN [ABCD1_Y180_R182P], the SH2 binding enrichment was 0.877.
Work on HAVYIYDICHV [TWNK_Y508_V507I] yielded an SH2 binding enrichment of 0.707.
With SDGGCYEQLFV [MC4R_Y41] the SH2 binding enrichment was 0.68.
DLTQDYEEWKR [ORC6_Y232] was tested, and the SH2 binding enrichment was 0.55.
TEAEPYYRSLR [NPHS1_Y1138] was tested, and the SH2 binding enrichment was 0.707.
In the case of DNEFAYLKAII [HNF4A_Y288_YF], the SH2 binding enrichment is reported as 0.429.
WYQTKYEELQV [KRT6B_Y360_I365V] gave an SH2 binding enrichment of 6.2.
AKKKMYSRKTK [AGXT_Y231] gave an SH2 binding enrichment of 0.409.
